Biological target: T1, C3b (UniProt P01024 23-667; P01024 749-1663)
T1 construct: Coated on the microtiter plate at 5 ug/ml; source: bought: CompTech
Experiment: ELISA; C3-convertase assembled on coated C3b in the presence of patient IgGs for 45 min, then Factor H (20 ug/ml) added, 37°C; convertase-bound Bb detected at 15, 30 or 45 min with Factor B polyclonal antiserum, OD 450 nm
Conditions: both partners purified

T1 sequence (P01024 23-667, chain 1 of 2): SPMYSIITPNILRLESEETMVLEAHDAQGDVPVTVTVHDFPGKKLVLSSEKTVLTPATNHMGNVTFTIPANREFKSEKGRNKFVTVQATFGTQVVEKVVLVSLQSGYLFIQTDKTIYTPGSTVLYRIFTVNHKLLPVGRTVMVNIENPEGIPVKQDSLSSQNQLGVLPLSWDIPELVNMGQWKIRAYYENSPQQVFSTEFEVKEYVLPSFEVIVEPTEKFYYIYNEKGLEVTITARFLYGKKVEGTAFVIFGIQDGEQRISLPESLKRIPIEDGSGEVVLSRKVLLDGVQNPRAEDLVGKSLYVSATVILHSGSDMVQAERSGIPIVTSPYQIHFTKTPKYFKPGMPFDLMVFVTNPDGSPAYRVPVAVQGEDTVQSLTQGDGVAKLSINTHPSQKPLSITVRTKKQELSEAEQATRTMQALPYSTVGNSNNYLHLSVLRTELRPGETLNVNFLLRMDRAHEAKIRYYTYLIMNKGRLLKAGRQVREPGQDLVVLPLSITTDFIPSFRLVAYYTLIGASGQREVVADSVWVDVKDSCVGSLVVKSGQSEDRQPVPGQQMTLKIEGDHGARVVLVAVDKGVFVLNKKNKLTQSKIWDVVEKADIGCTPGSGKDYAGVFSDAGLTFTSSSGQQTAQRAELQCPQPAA
T1 sequence (P01024 749-1663, chain 2 of 2): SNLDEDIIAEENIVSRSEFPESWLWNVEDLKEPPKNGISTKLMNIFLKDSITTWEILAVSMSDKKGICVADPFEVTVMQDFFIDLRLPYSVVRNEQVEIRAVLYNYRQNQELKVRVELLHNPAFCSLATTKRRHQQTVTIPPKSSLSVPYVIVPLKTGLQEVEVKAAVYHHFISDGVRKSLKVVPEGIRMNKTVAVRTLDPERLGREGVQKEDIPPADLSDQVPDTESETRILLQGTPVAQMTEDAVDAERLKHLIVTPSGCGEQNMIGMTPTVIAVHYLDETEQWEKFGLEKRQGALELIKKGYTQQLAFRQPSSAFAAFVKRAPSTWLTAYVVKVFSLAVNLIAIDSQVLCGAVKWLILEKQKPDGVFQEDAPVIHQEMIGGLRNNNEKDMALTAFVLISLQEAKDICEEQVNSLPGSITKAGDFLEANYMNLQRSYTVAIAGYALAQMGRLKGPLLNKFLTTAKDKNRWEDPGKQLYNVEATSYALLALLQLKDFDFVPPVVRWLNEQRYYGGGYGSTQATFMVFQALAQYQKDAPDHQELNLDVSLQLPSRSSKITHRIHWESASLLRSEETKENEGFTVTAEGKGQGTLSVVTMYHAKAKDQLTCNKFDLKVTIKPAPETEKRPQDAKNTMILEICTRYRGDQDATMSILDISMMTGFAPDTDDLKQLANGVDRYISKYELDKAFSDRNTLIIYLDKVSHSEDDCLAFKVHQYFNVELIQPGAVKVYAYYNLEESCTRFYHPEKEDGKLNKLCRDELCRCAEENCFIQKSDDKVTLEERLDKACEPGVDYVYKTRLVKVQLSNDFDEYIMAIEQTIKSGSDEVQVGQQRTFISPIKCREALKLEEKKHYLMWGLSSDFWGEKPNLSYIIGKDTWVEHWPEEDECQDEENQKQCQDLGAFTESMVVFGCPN

B1: Factor H (natural protein, UniProt P08603 19-1231, looked up)
chain: EDCNELPPRRNTEILTGSWSDQTYPEGTQAIYKCRPGYRSLGNVIMVCRKGEWVALNPLRKCQKRPCGHPGDTPFGTFTLTGGNVFEYGVKAVYTCNEGYQLLGEINYRECDTDGWTNDIPICEVVKCLPVTAPENGKIVSSAMEPDREYHFGQAVRFVCNSGYKIEGDEEMHCSDDGFWSKEKPKCVEISCKSPDVINGSPISQKIIYKENERFQYKCNMGYEYSERGDAVCTESGWRPLPSCEEKSCDNPYIPNGDYSPLRIKHRTGDEITYQCRNGFYPATRGNTAKCTSTGWIPAPRCTLKPCDYPDIKHGGLYHENMRRPYFPVAVGKYYSYYCDEHFETPSGSYWDHIHCTQDGWSPAVPCLRKCYFPYLENGYNQNYGRKFVQGKSIDVACHPGYALPKAQTTVTCMENGWSPTPRCIRVKTCSKSSIDIENGFISESQYTYALKEKAKYQCKLGYVTADGETSGSITCGKDGWSAQPTCIKSCDIPVFMNARTKNDFTWFKLNDTLDYECHDGYESNTGSTTGSIVCGYNGWSDLPICYERECELPKIDVHLVPDRKKDQYKVGEVLKFSCKPGFTIVGPNSVQCYHFGLSPDLPICKEQVQSCGPPPELLNGNVKEKTKEEYGHSEVVEYYCNPRFLMKGPNKIQCVDGEWTTLPVCIVEESTCGDIPELEHGWAQLSSPPYYYGDSVEFNCSESFTMIGHRSITCIHGVWTQLPQCVAIDKLKKCKSSNLIILEEHLKNKKEFDHNSNIRYRCRGKEGWIHTVCINGRWDPEVNCSMAQIQLCPPPPQIPNSHNMTTTLNYRDGEKVSVLCQENYLIQEGEEITCKDGRWQSIPLCVEKIPCSQPPQIEHGTINSSRSSQESYAHGTKLSYTCEGGFRISEENETTCYMGKWSSPPQCEGLPCKSPPEISHGVVAHMSDSYQYGEEVTYKCFEGFGIDGPAIAKCLGEKWSHPPSCIKTDCLSLPSFENAIPMGEKKDVYKAGEQVTYTCATYYKMDGASNVTCINSRWTGRPTCRDTSCVNPPTVQNAYIVSRQMSKYPSGERVRYQCRSPYEMFGDEEVMCLNGNWTEPPQCKDSTGKCGPPPPIDNGDITSFPLSVYAPASSVEYQCQNLYQLEGNKRITCRNGQWSEPPKCLHPCVISREIMENYNIALRWTAKQKLYSRTGESVEFVCKRGYRLSSRSHTLRTTCWDGKLEYPTCAKR
notes: complement Factor H; Used at 20 ug/ml; source: bought: CompTech
B1: binds.

Source: PMC6554336, “C3-Glomerulopathy Autoantibodies Mediate Distinct Effects on Complement C3- and C5-Convertases” (Frontiers in Immunology, 2019)
